T1: CD20 (human, UniProt P11836 1-297)
T1 construct: whole, on cells; not clear that this entry is the whole human CD20, so it is not used; also called human CD20; CD20 antigen
T1 sequence (looked up): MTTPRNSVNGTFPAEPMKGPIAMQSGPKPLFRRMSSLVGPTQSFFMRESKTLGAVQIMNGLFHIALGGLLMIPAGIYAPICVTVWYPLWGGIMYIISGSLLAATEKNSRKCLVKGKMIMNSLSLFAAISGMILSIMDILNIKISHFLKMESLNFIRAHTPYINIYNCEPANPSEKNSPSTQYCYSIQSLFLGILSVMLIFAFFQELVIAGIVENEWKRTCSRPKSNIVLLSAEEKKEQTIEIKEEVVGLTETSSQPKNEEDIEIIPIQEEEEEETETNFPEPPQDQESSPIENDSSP


What was measured:
CD20 [1] = biological target: T1, CD20; assay: Scatchard analysis, cold antibody against 125I-2H7.v16 on WIL2-S cells
Experimental: All dilutions were performed in binding assay buffer (DMEM media containing 1% bovine serum albumin, 25 mM HEPES pH 7.2, and 0.01% sodium azide). […] WIL2-S cells (60,000 cells in 0.025 mL) were then added. The plate was sealed and incubated at room temperature for 24 h, then centrifuged for 15 min at 3,500 RPM. The supernatant was then aspirated and the cell pellet was washed and centrifuged. The supernatant was again aspirated, and the pellets were dissolved in 1N NaOH and transferred to tubes for gamma counting.

CD20 [2] = biological target: T1, CD20; assay: cell-based ELISA, WIL2-S cells
Experimental: To measure relative binding affinities to the CD20 antigen, a cell-based ELISA assay was developed. […] The cells were washed with PBS containing 1% FBS (assay buffer) and seeded at 250-300,000 cellwell in 96-well round bottom plates (Nunc, Roskilde, Denmark). […] The plates were buried in ice and incubated for 45 min. To remove the unbound antibody, 0.1 mL assay buffer were added to the wells. Plates were centrifuged and supernatants were removed. Cells were washed two more times with 0.2 mL assay buffer. Antibody bound to the plates was detected by adding peroxidase conjugated goat anti-human Fc antibody (Jackson ImmunoResearch, West Grove, Pa.) to the plates. After a 45 min incubation, cells were washed as described before. TMB substrate (3,3′,5,5′-tetramethyl benzidine; Kirkegaard & Perry Laboratories, Gaithersburg, Md.) was added to the plates. The reaction was stopped by adding 1 M phosphoric acid. Titration curves were fit with a four-parameter nonlinear regression curve-fitting program (KaleidaGraph, Synergy software, Reading, Pa.). The absorbance at the midpoint of the titration curve (mid-OD) and its corresponding concentration of the standard were determined. Then the concentration of each variant at this mid-OD was determined, and the concentration of the standard was divided by that of each variant.

Binder | Kd (CD20 [1]) [nM] | Relative binding (CD20 [2])
2H7.v73 (antibody, IgG1, IgG1; 2H7.v16 background) heavy: not shown light: DIQMTQSPSSLSASVGDRVTITCRASSSVSYLHWYQQKPGKAPKPLIYAPSNLASGVPSRFSGSGSGTDFTLTISSLQPEDFATYYCQQWSFNPPTFGQGTKVEIKRTVAAPSVFIFPPSDEQLKSGTASVVCLLNNFYPREAKVQWKVDNALQSGNSQESVTEQDSKDSTYSLSSTLTLSKADYEKHKVYACEVTHQGLSSPVTKSFNRGEC | 1.22 | 
2H7.v75 (antibody, IgG1, IgG1; 2H7.v16 background) heavy: EVQLVESGGGLVQPGGSLRLSCAASGYTFTSYNMHWVRQAPGKGLEWVGAIYPGNGDTSYNQKFKGRFTISVDKSKNTLYLQMNSLRAEDTAVYYCARVVYYSASYWYFDVWGQGTLVTVSSASTKGPSVFPLAPSSKSTSGGTAALGCLVKDYFPEPVTVSWNSGALTSGVHTFPAVLQSSGLYSLSSVVTVPSSSLGTQTYICNVNHKPSNTKVDKKVEPKSCDKTHTCPPCPAPELLGGPSVFLFPPKPKDTLMISRTPEVTCVVVDVSHEDPEVKFNWYVDGVEVHNAKTKPREEQYNATYRVVSVLTVLHQDWLNGKEYKCKVSNKALPAPIAATISKAKGQPREPQVYTLPPSREEMTKNQVSLTCLVKGFYPSDIAVEWESNGQPENNYKTTPPVLDSDGSFFLYSKLTVDKSRWQQGNVFSCSVMHEALHNHYTQKSLSLSPGK light: DIQMTQSPSSLSASVGDRVTITCRASSSVSYLHWYQQKPGKAPKPLIYAPSNLASGVPSRFSGSGSGTDFTLTISSLQPEDFATYYCQQWSFNPPTFGQGTKVEIKRTVAAPSVFIFPPSDEQLKSGTASVVCLLNNFYPREAKVQWKVDNALQSGNSQESVTEQDSKDSTYSLSSTLTLSKADYEKHKVYACEVTHQGLSSPVTKSFNRGEC | 1.09 | 
2H7 version 166 (antibody, human IgG1, kappa, V domains shown, IgG1; 2H7.v16 background; Y100b is deleted (empty new residue)) VH: EVQLVESGGGLVQPGGSLRLSCAASGYTFTSYNMHWVRQAPGKGLEWVGAIYPGNGDTSYNQKFKGRFTISVDKSKNTLYLQMNSLRAEDTAVYYCARVVYYGGDWYFDVWGQGTLVTVSS VL: DIQMTQSPSSLSASVGDRVTITCRASSSVSYMHWYQQKPGKAPKPLIYAPSNLASGVPSRFSGSGSGTDFTLTISSLQPEDFATYYCQQWSFNPPTFGQGTKVEIKR |  | 0.99 ratio (2H7.v16 conc./variant conc.)
